{"source": "patent US20160017348A1", "molecular_target": "unmodified H3 peptide (UniProt P59226)", "assay": "ITC; FIG. 3A"}
{"substance": "SHH1 SAWADEE domain (residues 125-258) (from UniProt Q9XI47 125-258)", "values": [{"measurement": "Kd", "value": 34.8, "unit": "µM"}]}
